Reference: patent US20240101687A1

Legend:
[1] = target: human IGF1R on cells (human) (UniProt P08069); assay: FACS on JIMT-1 cells (FL1-H), anti-human FITC; MFI of 2nd Ab only 1.89, untreated 1.36
[2] = target: human IGF1R on cells (human) (UniProt P08069); assay: FACS on BT474 cells (FL1-H), anti-human FITC; MFI of 2nd Ab only 1.93, untreated 1.8
[3] = target: human IGF1R on cells (human) (UniProt P08069); assay: FACS on MCF-7 cells (FL1-H), anti-human FITC; MFI of 2nd Ab only 4.53, untreated 2.51

IMC-A12 (antibody), sequence (VH): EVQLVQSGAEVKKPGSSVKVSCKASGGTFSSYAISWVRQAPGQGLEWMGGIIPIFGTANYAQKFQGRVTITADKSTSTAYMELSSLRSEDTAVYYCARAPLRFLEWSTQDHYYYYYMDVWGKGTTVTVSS
IMC-A12 (antibody), sequence (VL): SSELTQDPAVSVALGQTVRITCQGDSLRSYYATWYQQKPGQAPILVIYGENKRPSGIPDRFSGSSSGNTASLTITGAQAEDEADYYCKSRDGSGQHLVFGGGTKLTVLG

- MFI [1]: 23
- MFI [2]: 18.3
- MFI [3]: 40.1
Substance: IMC-A12 (antibody)
